From publication PMC4506568, “Targeting a Dynamic Protein–Protein Interaction: Fragment Screening against the Malaria Myosin A Motor Complex” (Chemmedchem, 2014)
Where no end group is shown, it is not given here. 8e = not defined here

B1: peptide–fragment chimera1 (fragment 8 functionality – glycine spacer – myoA tail from Leu 805) (peptide)
peptide: 8e-GLRVQAHIRKKMVAQ
modifications: reading uncertain
notes: myosin A (PfmyoA) C-terminal tail, Plasmodium falciparum, PfmyoA(799–818) truncated at its N-terminal end to Leu 805; called the shortest chimera; source: synthetic peptide (Fmoc-based solid-phase peptide synthesis)
B2: peptide–fragment chimera2 (fragment 8 functionality – glycine spacer – myoA tail from Leu 804) (peptide)
peptide: 8e-GLLRVQAHIRKKMVAQ
modifications: reading uncertain
notes: myosin A (PfmyoA) C-terminal tail, Plasmodium falciparum, PfmyoA(799–818) truncated at its N-terminal end to Leu 804; source: synthetic peptide (Fmoc-based solid-phase peptide synthesis)
B3: peptide PfmyoA(803–818) (peptide)
peptide: SLLRVQAHIRKKMVAQ
notes: myosin A (PfmyoA) C-terminal tail, Plasmodium falciparum, residues 803–818; also called PfmyoA tail peptide; positive control PfmyoA tail peptide
B4: PfmyoA(799–818) (peptide)
peptide: KNIPSLLRVQAHIRKKMVAQ
notes: myosin A (PfmyoA) C-terminal tail, Plasmodium falciparum, residues 799–818; also called myoA tail; myoA tail peptide
B5: peptide–fragment chimera3 (fragment 8 functionality – glycine spacer – myoA tail from Ser 803) (peptide)
peptide: 8e-GSLLRVQAHIRKKMVAQ
modifications: reading uncertain
notes: myosin A (PfmyoA) C-terminal tail, Plasmodium falciparum, PfmyoA(799–818) truncated at its N-terminal end to Ser 803; that chimera3 begins at Ser 803 follows from the order of the list (Leu 805, Leu 804, Ser 803); source: synthetic peptide (Fmoc-based solid-phase peptide synthesis)

Key:
Settings in all cases: both partners purified
[1] = target: T1, Plasmodium falciparum myosin A tail domain interacting protein, residues 61–204 (PfMTIPΔ60) (Plasmodium falciparum, UniProt Q8I4W8 61-204); experiment: differential scanning fluorimetry; 5 μM PfMTIPΔ60 with 200 μM peptide in buffer A (20 mM HEPES pH 7.5, 50 mM NaCl, 1 mM TCEP), 10× SYPRO Orange, 15–80 °C
T1 construct: source: 15N-labeled for NMR; not shown: His tag, N-terminal, kept
T1 sequence: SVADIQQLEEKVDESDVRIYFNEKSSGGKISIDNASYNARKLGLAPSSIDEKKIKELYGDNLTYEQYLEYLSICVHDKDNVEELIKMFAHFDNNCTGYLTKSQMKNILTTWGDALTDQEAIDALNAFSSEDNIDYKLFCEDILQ

[2] = target: T1, Plasmodium falciparum myosin A tail …; experiment: protein-detected NMR (1H,15N-HSQC); preformed complex of 100 μM 15N-labeled PfMTIPΔ60 with PfmyoA(799–818), buffer B (20 mM MOPS pH 7.0, 50 mM NaCl, 1 mM TCEP), 10 % D2O, 303 K; fragments 8 or 3 added
[3] = target: T1, Plasmodium falciparum myosin A tail …; experiment: ITC; 303 K; cell with about 200 μL of 20 μM PfMTIPΔ60 in buffer A (20 mM HEPES pH 7.5, 50 mM NaCl, 1 mM TCEP); peptide added in 2 μL injections from 250 μM; single site fit; n=1

Binder	Tm of the complex [1]	also measured
B1	47.8 °C	–
B2	53.4 °C	–
B3	–	ΔTm [1]: 15.3 °C
B4	–	binding result [2]: binds
B5	55.8 °C	Kd [3]: 0.052 µM
